Positions count from the first letter of the chain named. Values belong to the binder of their own block, whether it stands above or below them.
Legend:
[1] = molecular target: T1, extracellular domain of the human leptin receptor (human, UniProt P48357 22-839); test: SPR, Biacore T200; His-tagged leptin receptor ECD amine-coupled on a CM5 chip, binder as analyte
T1 construct: extracellular domain; a tag is not mentioned for the ELISA and cross-linking experiments; also called hECD; recombinant leptin receptor extracellular domain
T1 sequence (looked up): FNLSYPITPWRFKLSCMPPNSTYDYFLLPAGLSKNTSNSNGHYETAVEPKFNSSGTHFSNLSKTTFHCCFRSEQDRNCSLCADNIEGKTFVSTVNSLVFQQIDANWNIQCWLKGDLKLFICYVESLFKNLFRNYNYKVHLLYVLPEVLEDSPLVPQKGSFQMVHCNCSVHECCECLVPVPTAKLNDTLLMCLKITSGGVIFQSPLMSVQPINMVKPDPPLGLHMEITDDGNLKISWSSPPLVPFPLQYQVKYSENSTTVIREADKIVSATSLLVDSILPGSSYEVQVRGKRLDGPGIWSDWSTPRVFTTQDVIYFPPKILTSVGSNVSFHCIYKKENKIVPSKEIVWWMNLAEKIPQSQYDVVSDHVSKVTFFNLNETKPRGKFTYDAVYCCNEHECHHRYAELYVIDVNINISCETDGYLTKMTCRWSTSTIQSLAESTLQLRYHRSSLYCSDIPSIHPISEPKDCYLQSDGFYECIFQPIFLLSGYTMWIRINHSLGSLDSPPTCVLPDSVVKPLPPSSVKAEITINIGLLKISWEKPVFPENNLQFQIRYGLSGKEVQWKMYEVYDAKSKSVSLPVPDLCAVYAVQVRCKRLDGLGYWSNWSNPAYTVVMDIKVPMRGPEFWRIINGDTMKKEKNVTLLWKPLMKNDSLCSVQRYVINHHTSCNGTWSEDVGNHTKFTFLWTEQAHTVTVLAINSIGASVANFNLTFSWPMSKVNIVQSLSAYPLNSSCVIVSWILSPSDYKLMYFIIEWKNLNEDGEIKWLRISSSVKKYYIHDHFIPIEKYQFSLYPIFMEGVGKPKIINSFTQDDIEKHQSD
Experimental: The SPR binding assays were performed using the Biacore T200™ (GE Healthcare). […] All manipulations were performed as described in the user guide of the manufacturer. The analysis of the results were processed in BIA evaluation Software™.

[2] = molecular target: T1, extracellular domain of the human …; test: SPR; leptin receptor ECD immobilized, antibody as analyte
[3] = molecular target: T2, fibronectin type III domains (FNIII) of the leptin receptor extracellular domain, I636-D839 (human, UniProt P48357 636-839); test: ELISA of S2H6 on purified subdomains of the leptin receptor extracellular domain, OD405; antibody concentration not given
T2 construct: Expressed and purified subdomain
T2 sequence: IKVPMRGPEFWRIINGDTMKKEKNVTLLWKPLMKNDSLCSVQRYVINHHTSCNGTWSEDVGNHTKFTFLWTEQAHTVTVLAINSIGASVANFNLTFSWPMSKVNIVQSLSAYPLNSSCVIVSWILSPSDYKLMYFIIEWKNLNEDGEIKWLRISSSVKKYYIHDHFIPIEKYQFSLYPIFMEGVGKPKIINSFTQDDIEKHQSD
Text: (§1) To test ability if the antibody to bind these domains, these subdomain were used in an ELISA-based biding assay.

[4] = molecular target: T3, N terminal domain (NTD) of the leptin receptor extracellular domain, F22-Q121 (human, UniProt P48357 22-121); test: as above
T3 sequence: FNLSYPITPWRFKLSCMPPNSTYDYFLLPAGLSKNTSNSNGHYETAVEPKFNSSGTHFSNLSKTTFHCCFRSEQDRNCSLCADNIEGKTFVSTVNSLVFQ
Text: as §1

[5] = molecular target: T4, immunoglobulin-like domain (IgD) of the leptin receptor extracellular domain, I334-V427 (human, UniProt P48357 334-427); test: as above
T4 construct: Expressed and purified subdomain
T4 sequence: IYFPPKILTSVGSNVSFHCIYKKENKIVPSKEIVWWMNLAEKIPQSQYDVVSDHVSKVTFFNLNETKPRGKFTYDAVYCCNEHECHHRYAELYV
Text: as §1

[6] = molecular target: T5, first cytokine receptor homology domain (CRH1) of the leptin receptor extracellular domain, Q122-V333 (human, UniProt P48357 122-333); test: as above
T5 construct: Expressed and purified subdomain
T5 sequence: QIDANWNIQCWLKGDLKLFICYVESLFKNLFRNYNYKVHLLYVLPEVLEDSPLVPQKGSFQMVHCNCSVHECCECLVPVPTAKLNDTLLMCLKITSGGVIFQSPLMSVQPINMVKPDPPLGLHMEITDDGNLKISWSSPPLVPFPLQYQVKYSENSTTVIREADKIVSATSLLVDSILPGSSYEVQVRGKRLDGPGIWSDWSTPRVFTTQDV
Text: as §1

B1: S1scAb06 (antibody, V domains shown)
VH: QVQLVESGGGVVQPGRSLRLSCAASGFTFSSYGMHWVRQAPGKGLEWVAVISYDGSNKYYADSVKGRFTISRDNSKNTLYLQMNSLRAEDTAVYYCAKSLRNSFDYWGQGTLVTVSS
VL: EIVLTQSPGTLSLSPGERATLSCRASQSVSSNYLAWYQQKPGQAPRLLIYGASSRPTGIPDRFSGSGSGTDFTLTISRLEPEDFAVYYCQQYAASPLTFGGGTKLEIK
notes: also called S1scAb6; 51scAb06
Kd [1]: 7470 pM | koff [1]: 0.0516 s⁻¹ | kon [1]: 6.91e+06 M⁻¹ s⁻¹

B2: S2H1 (antibody, V domains shown)
VH: B1 VH with V5L, E6Q, K98S, S99L, L100Y, R101E, S103Y, D105S, Y106L
VL: B1 VL
notes: also called SC2H1
Kd [2]: 578 pM | koff [2]: 0.000271 s⁻¹ | kon [2]: 468000 M⁻¹ s⁻¹

B4: S2H2 (antibody, V domains shown)
VH: B1 VH with V5L, E6Q, K98T, S99F, L100R, R101E, S103Y, D105E
VL: B1 VL
notes: also called SC2H2; 52H2
Kd [2]: 355 pM | koff [2]: 0.000119 s⁻¹ | kon [2]: 336000 M⁻¹ s⁻¹

Continued, values first:

Kd [2]: 639 pM | koff [2]: 0.000171 s⁻¹ | kon [2]: 268000 M⁻¹ s⁻¹
B3: S2H7 (antibody, V domains shown)
VH: B1 VH with V5L, E6Q, K98T, S99R, L100Y, R101E, S103Y, D105S, Y106T
VL: B1 VL
notes: also called SC2H7

Kd [2]: 390 pM | koff [2]: 0.000308 s⁻¹ | kon [2]: 786000 M⁻¹ s⁻¹ | Kd [1]: 390 pM | koff [1]: 0.000308 s⁻¹ | kon [1]: 786000 M⁻¹ s⁻¹ | binding result [3]: no binding | binding result [4]: no binding | binding result [5]: no binding | binding result [6]: no binding
B5: S2H6 (antibody, V domains shown)
VH: B1 VH with V5L, E6Q, K98S, S99F, L100Q, R101E, S103Y, D105T
VL: B1 VL
notes: also called SC2H6

Kd [2]: 626 pM | koff [2]: 0.000164 s⁻¹ | kon [2]: 262000 M⁻¹ s⁻¹
B6: S2H5 (antibody, V domains shown)
VH: B1 VH with V5L, E6Q, K98S, S99R, L100Y, R101E, S103Y, D105S, Y106L
VL: B1 VL
notes: also called SC2H5

Kd [2]: 429 pM | koff [2]: 0.0002 s⁻¹ | kon [2]: 466000 M⁻¹ s⁻¹
B7: S2H3 (antibody, V domains shown)
VH: B1 VH with V5L, E6Q, K98G, S99V, L100R, R101E, S103Y, D105T
VL: B1 VL
notes: also called SC2H3
